From patent CN114230673A (dated 2022)

Assays:
Assay in all cases: ELISA, biotinylated recombinant protein on streptavidin plate, HRP anti-His detection
生物素标记重组人BCMA (rhBCMA) = target: T1, 生物素标记重组人BCMA (rhBCMA) (human, UniProt Q02223 1-54, biotin label (site not stated))
T1 construct: Bought protein
T1 sequence (looked up): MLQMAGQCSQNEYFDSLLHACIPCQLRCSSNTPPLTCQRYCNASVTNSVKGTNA

生物素标记重组人CD27 (rhCD27) = target: T2, 生物素标记重组人CD27 (rhCD27) (human, UniProt P26842 21-192, limits assumed, biotin label (site not stated))
T2 construct: Bought protein
T2 sequence (looked up): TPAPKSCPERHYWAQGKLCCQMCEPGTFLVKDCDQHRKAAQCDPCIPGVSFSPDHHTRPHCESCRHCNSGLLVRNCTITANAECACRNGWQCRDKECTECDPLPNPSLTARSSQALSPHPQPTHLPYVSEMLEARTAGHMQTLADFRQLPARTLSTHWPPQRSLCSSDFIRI

生物素标记重组人CD40 (rhCD40) = target: T3, 生物素标记重组人CD40 (rhCD40) (human, UniProt P25942 21-193, biotin label (site not stated))
T3 construct: Bought protein
T3 sequence (P25942 21-193 limits assumed): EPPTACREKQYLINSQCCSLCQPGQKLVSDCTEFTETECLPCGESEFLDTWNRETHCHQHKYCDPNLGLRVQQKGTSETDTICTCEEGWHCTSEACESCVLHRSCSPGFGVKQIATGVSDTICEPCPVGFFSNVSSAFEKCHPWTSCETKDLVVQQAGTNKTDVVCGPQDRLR

- binding result (生物素标记重组人BCMA (rhBCMA)): no binding
- binding result (生物素标记重组人CD27 (rhCD27)): no binding
- binding result (生物素标记重组人CD40 (rhCD40)): no binding
B1: anti-CD19 scFv (scFv)
scFv: DIQMTQTTSSLSASLGDRVTISCRASQDISKYLNWYQQKPDGTVKLLIYHTSRLHSGVPSRFSGSGSGTDYSLTISNLEQEDIATYFCQQGNTLPYTFGGGTKLEITGGGGSGGGGSGGGGSEVKLQESGPGLVAPSQSLSVTCTVSGVSLPDYGVSWIRQPPRKGLEWLGVIWGSETTYYNSALKSRLTIIKDNSKSQVFLKMNSLQTDDTAIYYCAKHYYYGGSYAMDYWGQGTSVTVSS
notes: Soluble scFv used in the ELISA and flow cytometry; also called CD19抗体; 小鼠抗人anti CD19-scFv抗体; not shown: His tag implied by the anti-His detection antibody
